Numbered stars: 1 amine (or outer) side, 2 acyl side, 3 side chain; on linkers, the order of the positions; unused ones are H or OH. Square brackets hold non-standard residues; d marks the D form. Peptide text beside a SMILES is read from it. * marks the point of attachment. Exatecan = CC[C@@]1(O)C(=O)OCc2c1cc1n(c2=O)Cc2c-1nc1cc(F)c(C)c3c1c2[C@@H](N*)CC3; Dolaproine = CO[C@@H]([C@@H]1CCCN1)[C@@H](C)C(=O)O; Hexanoyl(6-maleimido) = O=C1C=CC(=O)N1CCCCCC(=O)*; Dil = CC[C@H](C)[C@H](NC)[C@@H](CC(=O)O)OC; PABC = O=C(OCc1ccc(N[*:1])cc1)[*:2]; X1 = C[N+](C)(CCCS(=O)(=O)[O-])CCN*; NHCH2OCH2CO = O=C(COCN[*:1])[*:2]; X2 = C[C@@H](N*)[C@@H](O)c1ccccc1; NMeV = CN[C@H](C(=O)O)C(C)C
Tests used:
Cathepsin B enzyme = molecular target: T1, Cathepsin B enzyme (Homo sapiens, UniProt P07858); experiment: In vitro enzymatic release of free toxin molecules by Cathepsin B; assay type: biochemical
T1 construct: purchased Sino Biological 10483-H08H
Method: Preparation of activated buffer solution (10 mM L-cysteine (ACRO, cat #: 173600250), 15 mM EDTA, 0.1M His HCl, pH 5.5): […] of solid cysteine was weighed, adding 3 mL of 0.1M His HCl (pH 5.5) solution for dissolution, and then adding 90 μL of 0.5M EDTA solution to mix well.
[…] At each detection time point, 50 μL of enzyme digestion solution was taken, adding 2.5 μL of 10% TFA solution to terminate the reaction for enzyme digestion kinetics detection.
Negative control preparation: 30 μL of activated buffer was taken to stay in 37° C. water bath for 15 minutes, then adding 300 μL of 0.1M His HCl (pH 5.5) solution and 36 μL of 9D1-LD-38 (375 μg) to stay in 37° C. water bath overnight.

[1] = Hydrophobic interaction chromatography (HIC) analysis of the antibody-drug conjugates; assay type: physicochemical; conditions: main peak of the antibody-drug conjugate, Butyl-NPR column
Method: Size exclusion chromatography (SEC) analysis column is Tskgel G3000SWXL (TOSOH, 0008541); mobile phase is 0.1 M PB, pH7.0, 0.1M NaCl; isocratic elution, flow rate: 1 mL/min; column temperature: 25° C. Detection wavelength is 280 nm and 366 nm, respectively. Hydrophobic interaction chromatography (HIC) analysis column is Butyl-NPR 4.6×100 mm (TOSOH, 0042168); mobile phase A is 50 mM PB, pH7.0, 1.5 M (NH4)2SO4; mobile phase B is 50 mM PB, pH7.0, 20% acetonitrile. Separation gradient: changing from 0% B to 100% B in 2-20 min, column temperature: 30° C., flow rate: 0.6 mL/min. Detection wavelength is 280 nm and 366 nm, respectively. The results are shown in Table 1 and FIG. 1-FIG. 6 (FIG. 1 comprises FIG. 1A and FIG. 1B; FIG. 2 comprises FIG. 2A and FIG. 2B; FIG. 3 comprises FIG. 3A, FIG. 3B, FIG. 3C, FIG. 3D, FIG. 3E, FIG. 3F, FIG. 3G and FIG. 3H; FIG. 4 comprises FIG. 4A and FIG. 4B; FIG. 5 comprises FIG. 5A and FIG. 5B; and FIG. 6 comprises FIG. 6A, FIG. 6B, FIG. 6C, […], FIG. 6E, FIG. 6F, FIG. 6G and […]).

[2] = Size exclusion chromatography (SEC) analysis of the antibody-drug conjugates; assay type: physicochemical; conditions: SEC purity of the antibody-drug conjugate
Method: Size exclusion chromatography (SEC) analysis column is Tskgel G3000SWXL (TOSOH, 0008541); mobile phase is 0.1 M PB, pH7.0, 0.1M NaCl; isocratic elution, flow rate: 1 mL/min; column temperature: 25° C. Detection wavelength is 280 nm and 366 nm, respectively. Hydrophobic interaction chromatography (HIC) analysis column is Butyl-NPR 4.6×100 mm (TOSOH, 0042168); mobile phase A is 50 mM PB, pH7.0, 1.5 M (NH4)2SO4; mobile phase B is 50 mM PB, pH7.0, 20% acetonitrile. Separation gradient: changing from 0% B to 100% B in 2-20 min, column temperature: 30° C., flow rate: 0.6 mL/min. Detection wavelength is 280 nm and 366 nm, respectively.

MC38-hClaudin18.2 cells = experiment: In vitro tumor cell killing activity, MC38-hClaudin18.2 cell line (AlamarBlue); assay type: cell-based, mouse; conditions: MC38-hClaudin18.2 cells, 48-72 hours, AlamarBlue; read-out: IC50 values
Method: 9D1 antibody-drug conjugates prepared in the previous Experimental Examples and Comparative Examples were used for performing in vitro killing test on MC38 cell lines stably expressing human Claudin18.2. MC38-hClaudin18.2 cells were inoculated into a 96-well cell culture plate at 3000 cells/well, adding gradient diluted 9D1 ADCs next day to culture for 48-72 hours. The fluorescence values of each experimental well were detected by AlamarBlue reagent (ThermoFisher, item number DAL1100), and the cell viability was calculated.
When the cell confluence was greater than 80%, the cells were passaged at a ratio of 1:10 to 1:20 every 3 days.
MC38-hClaudin18.2 cells were digested by a digestive solution of recombinant enzyme (TrypLE™ Express Enzyme). […] The cell density was adjusted to 3×10^4 cells/mL, inoculating into 96-well cell culture plate at 100 μL/well. The cells were cultured overnight at 37° C. in 5% C02 incubator. The next day, the test drug was diluted 10 times in a series with a total of 7-8 concentration points, simultaneously setting a blank control with a sample concentration of 0. The diluted sample was added to 96-well cell culture plate containing cells at 100 μL/well, then incubating at 37° C. in 5% CO2 incubator for 48-72 hours. 20 μL of AlamarBlue detection reagent was added to each well, incubating at 37° C. for 4-6 hours, the fluorescence signal intensity was detected on a multifunctional enzyme-linked immunosorbent assay (ELISA) instrument with an excitation wavelength of 560 nm and an emission wavelength of 590 nm.
The cell viability of the blank control was set to 100%, and the cell viability (%) of the experimental well was calculated by the following formula: […]
The detected average cell viability was takedn as the y-axis, a sigmoid dose response (Variable Slope) method (GraphPad Prism software, GraphPad Software, San Diego, California) was used for nonlinear regression to obtain the inhibitory effect curves of cell proliferation, and the corresponding IC50 values (half maximum inhibition concentration) were calculated. […]

[3] = Time 0 h, linker-toxin to Cathepsin B about 1200:1, 37° C.

SMILES | HIC retention time [1] [min] | SEC % [2] [%] | also measured
CC[C@@]1(O)C(=O)OCc2c1cc1n(c2=O)Cc2c-1nc1cc(F)c(C)c3c1c2[C@@H](NC(=O)COCNC(=O)CNC(=O)[C@H](Cc1ccccc1)NC(=O)CNC(=O)CNC(=O)CCCCCN1C(=O)C=CC1=O)CC3 [Deruxtecan (MC-GGFG-Dxd), reference compound] ({Hexanoyl(6-maleimido)}-GGFG[NHCH2OCH2CO]-Exatecan) | – | – | Cathepsin B enzyme digestion kinetics (Cathepsin B enzyme; [3]): 0%; Cathepsin B enzyme digestion kinetics (Cathepsin B enzyme; Time 1 h): 0%; Cathepsin B enzyme digestion kinetics (Cathepsin B enzyme; Time 2 h): 0%; Cathepsin B enzyme digestion kinetics (Cathepsin B enzyme; Time 4 h): 0%; Cathepsin B enzyme digestion kinetics (Cathepsin B enzyme; Time 20 h): 0%; Cathepsin B enzyme digestion kinetics (Cathepsin B enzyme; Time 20 h, listed as MC-GGFG-Dxd): does not release any enzyme digestion products
CC[C@@]1(O)C(=O)OCc2c1cc1n(c2=O)Cc2c-1nc1cc(F)c(C)c3c1c2[C@@H](NC(=O)OCc1ccc(NC(=O)[C@H](C)NC(=O)[C@@H](NC(=O)[C@H](CCC(=O)O)NC(=O)CCCCCN2C(=O)C=CC2=O)C(C)C)cc1)CC3 [LD-27] | 15.107 | – | –
CC[C@@]1(O)C(=O)OCc2c1cc1n(c2=O)Cc2c-1nc1cc(F)c(C)c3c1c2[C@@H](NC(=O)OCc1ccc(NC(=O)[C@H](C)NC(=O)[C@@H](NC(=O)[C@H](CCC(=O)NCC[N+](C)(C)CCCS(=O)(=O)[O-])NC(=O)CCOCCOCCOCCOCCNC(=O)CCN2C(=O)C=CC2=O)C(C)C)cc1)CC3 [LD-37] | 14.069 | 97.50 | –
CC[C@@]1(O)C(=O)OCc2c1cc1n(c2=O)Cc2c-1nc1cc(F)c(C)c3c1c2[C@@H](NC(=O)OCc1ccc(NC(=O)[C@H](CCC(=O)NCC[N+](C)(C)CCCS(=O)(=O)[O-])NC(=O)[C@@H](NC(=O)CCOCCOCCOCCOCCNC(=O)CCN2C(=O)C=CC2=O)C(C)C)cc1)CC3 [LD-38] | 13.57 | – | Cathepsin B enzyme digestion kinetics (Cathepsin B enzyme; [3]): 0%; Cathepsin B enzyme digestion kinetics (Cathepsin B enzyme; Time 1 h): 20%; Cathepsin B enzyme digestion kinetics (Cathepsin B enzyme; Time 2 h): 77%; Cathepsin B enzyme digestion kinetics (Cathepsin B enzyme; Time 20 h): 100%
CC[C@H](C)[C@@H]([C@@H](CC(=O)N1CCC[C@H]1[C@H](OC)[C@@H](C)C(=O)N[C@H](C)[C@@H](O)c1ccccc1)OC)N(C)C(=O)[C@@H](NC(=O)[C@H](C(C)C)N(C)C(=O)OCc1ccc(NC(=O)[C@H](CCC(=O)NCC[N+](C)(C)CCCS(=O)(=O)[O-])NC(=O)[C@@H](NC(=O)CCCCCN2C(=O)C=CC2=O)C(C)C)cc1)C(C)C [LD-57] ({Hexanoyl(6-maleimido)}-VE(X1)[PABC][NMeV]V[Dil][Dolaproine]-X2) | 16.066 | 99.34 | –
CC[C@@]1(O)C(=O)OCc2c1cc1n(c2=O)Cc2c-1nc1cc(F)c(C)c3c1c2[C@@H](NC(=O)OCc1ccc(NC(=O)[C@H](C)NC(=O)[C@@H](NC(=O)CCOCCOCCOCCOCCNC(=O)CCN2C(=O)C=CC2=O)C(C)C)cc1CN(C)C(=O)CCC[N+](C)(C)CCCS(=O)(=O)[O-])CC3 [LD-65] | 13.46 | 99.28 | Cathepsin B enzyme digestion kinetics (Cathepsin B enzyme; [3]): 0%; Cathepsin B enzyme digestion kinetics (Cathepsin B enzyme; Time 1 h): 0%; Cathepsin B enzyme digestion kinetics (Cathepsin B enzyme; Time 2 h): 1%; Cathepsin B enzyme digestion kinetics (Cathepsin B enzyme; Time 4 h): 1%; HIC retention time ([1]; listed as 7): 13.455 min
CC[C@@]1(O)C(=O)OCc2c1cc1n(c2=O)Cc2c-1nc1cc(F)c(C)c3c1c2[C@@H](NC(=O)OCc1ccc(NC(=O)CNC(=O)[C@H](Cc2ccccc2)NC(=O)CNC(=O)CNC(=O)CCCCCN2C(=O)C=CC2=O)cc1CN(C)C(=O)COP(=O)([O-])OCC[N+](C)(C)C)CC3 [LD-72] | 13.126 | 98.90 | –
CC[C@@]1(O)C(=O)OCc2c1cc1n(c2=O)Cc2c-1nc1cc(F)c(C)c3c1c2[C@@H](NC(=O)OCc1ccc(NC(=O)[C@H](C)NC(=O)[C@@H](NC(=O)CCOCCOCCOCCOCCNC(=O)CCN2C(=O)C=CC2=O)C(C)C)cc1CN(C)C(=O)CCOCCOCCOCCOCCOCCOCCOCCOCCOC)CC3 [LD-73] | 16.002 | 99.53 | –
CC[C@@]1(O)C(=O)OCc2c1cc1n(c2=O)Cc2c-1nc1cc(F)c(C)c3c1c2[C@@H](NC(=O)OCc1ccc(NC(=O)[C@H](C)NC(=O)[C@@H](NC(=O)CCCCCN2C(=O)C=CC2=O)C(C)C)cc1CN(C)C(=O)CN(C)C(=O)CN(C)C(=O)CN(C)C(=O)CN(C)C(=O)CN(C)C(=O)CN(C)C(=O)CN(C)C(=O)CN(C)C(=O)CN(C)C(=O)CN(C)C(C)=O)CC3 [LD-74, reference compound] | 13.583 | 99.53 | –
CC[C@@]1(O)C(=O)OCc2c1cc1n(c2=O)Cc2c-1nc1cc(F)c(C)c3c1c2[C@@H](NC(=O)OCc1ccc(NC(=O)[C@H](CCC(=O)N(CCCS(=O)(=O)[O-])CC[N+](C)(C)C)NC(=O)[C@@H](NC(=O)CCOCCOCCOCCOCCNC(=O)CCN2C(=O)C=CC2=O)C(C)C)cc1)CC3 [LD-89] | 13.392 | 98.00 | –
CC[C@@]1(O)C(=O)OCc2c1cc1n(c2=O)Cc2c-1nc1cc(F)c(C)c3c1c2[C@@H](NC(=O)OCc1ccc(NC(=O)[C@H](C)NC(=O)[C@@H](NC(=O)CCCCCN(C)CCN2C(=O)C=CC2=O)C(C)C)cc1CN(C)C(=O)CCC[N+](C)(C)CCCS(=O)(=O)[O-])CC3 [LD-98] | 13.121 | 98.79 | –
CC[C@H](C)[C@@H]([C@@H](CC(=O)N1CCC[C@H]1[C@H](OC)[C@@H](C)C(=O)N[C@H](C)[C@@H](O)c1ccccc1)OC)N(C)C(=O)[C@@H](NC(=O)[C@@H](NC)C(C)C)C(C)C [MMAE, monomethyl auristatin E] (H-[NMeV]V[Dil][Dolaproine]-X2) | – | – | IC50 (MC38-hClaudin18.2 cells): 2.04 nM

Reference: US20260232825A1, “LINKER-DRUG MOLECULE AND ANTIBODY DRUG CONJUGATE, PREPARATION METHOD THEREFOR AND USE THEREOF” (SHANGHAI ESCUGEN BIOTECHNOLOGY CO., LTD., priority 2023, published 2026)
